± gives the standard deviation of the averaged measurements.
Experiment: total protein half-life in vivo (active degradation + dilution); higher = more stable protein
[1] = E. coli NCM3722 delta-clpP delta-lon delta-hslV, growth: N-lim chemostat, doubling time 6 h
[2] = E. coli NCM3722 delta-clpP, growth: N-lim chemostat, doubling time 6 h
[3] = E. coli NCM3722 delta-hslV, growth: N-lim chemostat, doubling time 6 h
[4] = E. coli NCM3722 delta-lon, growth: N-lim chemostat, doubling time 6 h
[5] = E. coli NCM3722 delta-smpB, growth: N-lim chemostat, doubling time 6 h
[6] = wild type E. coli NCM3722, growth: C-lim chemostat, doubling time 3 h
[7] = wild type E. coli NCM3722, growth: C-lim chemostat, doubling time 6 h
[8] = wild type E. coli NCM3722, growth: C-lim chemostat, doubling time 12 h
[9] = wild type E. coli NCM3722, growth: N-lim chemostat, doubling time 6 h
[10] = wild type E. coli NCM3722, growth: N-lim chemostat, doubling time 12 h
[11] = wild type E. coli NCM3722, growth: P-lim chemostat, doubling time 6 h
[12] = wild type E. coli NCM3722, growth: P-lim chemostat, doubling time 12 h

Sequence: MGRKWANIVAKKTAKDGATSKIYAKFGVEIYAAAKQGEPDPELNTSLKFVIERAKQAQVPKHVIDKAIDKAKGGGDETFVQGRYEGFGPNGSMIIAETLTSNVNRTIANVRTIFNKKGGNIGAAGSVSYMFDNTGVIVFKGTDPDHIFEILLEAEVDVRDVTEEEGNIVIYTEPTDLHKGIAALKAAGITEFSTTELEMIAQSEVELSPEDLEIFEGLVDALEDDDDVQKVYHNVANL [P0A8A2]
- total protein half-life in vivo [1]: 5.2 ± 0.11 h
- total protein half-life in vivo [2]: 4.981 ± 0.0067 h
- total protein half-life in vivo [3]: 4.11 ± 0.057 h
- total protein half-life in vivo [4]: 5.18 ± 1 h
- total protein half-life in vivo [5]: 4.17 ± 0.56 h
- total protein half-life in vivo [6]: 2.95 ± 0.35 h
- total protein half-life in vivo [7]: 5.79 ± 1.9 h
- total protein half-life in vivo [8]: 9.45 ± 0.47 h
- total protein half-life in vivo [9]: 4.55 ± 0.5 h
- total protein half-life in vivo [10]: 7.06 ± 0.55 h
- total protein half-life in vivo [11]: 5.02 ± 0.079 h
- total protein half-life in vivo [12]: 9.37 ± 0.61 h

Sequence: MGSDAKNLMSDGNVQIVKTGEVIGATQLTEGELIVEAGGRAENTVVTGAGWLKVATGGIAKCTQYGNNGTLSVSDGAIATDIVQSEGGAISLSTLATVNGRHPEGEFSVDKGYACGLLLENGGNLRVLEGHRAEKIILDQEGGLLVNGTTSAVVVDEGGELLVYPGGEASNCEINQGGVFMLAGKASDTLLAGGTMNNLGGEDSDTIVENGSIYRLGTDGLQLYSSGKTQNLSVNVGGRAEVHAGTLENAVIQGGTVILLSPTSADENFVVEEDRAPVELTGSVALLDGASMIIGYGAELQQSTITVQQGGVLILDGSTVKGDSVTFIVGNINLNGGKLWLITDAATHVQLKVKRLRGEGAICLQTSAKEISPDFINVKGEVTGDIHVEITDASRQTLCNALKLQPDEDGIGATLQPA
- total protein half-life in vivo [1]: 4.99 ± 0.55 h
- total protein half-life in vivo [2]: 4.73 ± 0.33 h
- total protein half-life in vivo [3]: 0.86 ± 0.11 h
- total protein half-life in vivo [4]: 1.12 ± 0.029 h
- total protein half-life in vivo [5]: 0.827 ± 0.0095 h
- total protein half-life in vivo [6]: 1.15 ± 0.029 h
- total protein half-life in vivo [7]: 1.56 ± 0.18 h
- total protein half-life in vivo [8]: 2.44 ± 0.65 h
- total protein half-life in vivo [9]: 1.07 ± 0.041 h
- total protein half-life in vivo [10]: 1.32 ± 0.13 h
- total protein half-life in vivo [11]: 1.73 ± 0.34 h
- total protein half-life in vivo [12]: 3.47 ± 1.2 h

Sequence: MGSEISKKDITRLGFRSSLLQASFNYERMQAGGFTWAMLPILKKIYKDDKPGLSAAMKDNLEFINTHPNLVGFLMGLLISMEEKGENRDTIKGLKVALFGPIAGIGDAIFWFTLLPIMAGICSSFASQGNLLGPILFFAVYLLIFFLRVGWTHVGYSVGVKAIDKVRENSQMIARSATILGITVIGGLIASYVHINVVTSFAIDNTHSVALQQDFFDKVFPNILPMAYTLLMYYFLRVKKAHPVLLIGVTFVLSIVCSAFGIL
- total protein half-life in vivo [12]: 4.67 h

Sequence: MGSQELQRKLGFWAVLAIAVGTTVGSGIFVSVGEVAKAAGTPWLTVLAFVIGGLIVIPQMCVYAELSTAYPENGADYVYLKNAGSRPLAFLSGWASFWANDAPSLSIMALAIVSNLGFLTPIDPLLGKFIAAGLIIAFMLLHLRSVEGGAAFQTLITIAKIIPFTIVIGLGIFWFKAENFAAPTTTAIGATGSFMALLAGISATSWSYTGMASICYMTGEIKNPGKTMPRALIGSCLLVLVLYTLLALVISGLMPFDKLANSETPISDALTWIPALGSTAGIFVAITAMIVILGSLSSCVMYQPRLEYAMAKDNLFFKCFGHVHPKYNTPDVSIILQGALGIFFIFVSDLTSLLGYFTLVMCFKNTLTFGSIIWCRKRDDYKPLWRTPAFGLMTTLAIASSLILVASTFVWAPIPGLICAVIVIATGLPAYAFWAKRSRQLNALS
- total protein half-life in vivo [6]: 3.26 h

Sequence: MGSTRKGMLNVLIAAVLWGSSGVCAQYIMEQSQMSSQFLTMTRLIFAGLILLTLSFVHGDKIFSIINNHKDAISLLIFSVVGALTVQLTFLLTIEKSNAATATVLQFLSPTIIVAWFSLVRKSRPGILVFCAILTSLVGTFLLVTHGNPTSLSISPAALFWGIASAFAAAFYTTYPSTLIARYGTLPVVGWSMLIGGLILLPFYARQGTNFVVNGSLILAFFYLVVIGTSLTFSLYLKGAQLIGGPKASILSCAEPLSSALLSLLLLGITFTLPDWLGTLLILSSVILISMDSRRRARKINRPARHK
- total protein half-life in vivo [2]: 6.18 h
- total protein half-life in vivo [3]: 4.72 ± 1.2 h
- total protein half-life in vivo [4]: 5.26 h
- total protein half-life in vivo [7]: 6.04 h
- total protein half-life in vivo [8]: 13.3 h
- total protein half-life in vivo [9]: 5.29 h
- total protein half-life in vivo [10]: 12.8 h
- total protein half-life in vivo [11]: 5.97 h
- total protein half-life in vivo [12]: 12 ± 0.74 h

Sequence: MGSTSSLYAAIDLGSNSFHMLVVREVAGSIQTLTRIKRKVRLAAGLNSENALSNEAMERGWQCLRLFAERLQDIPPSQIRVVATATLRLAVNAGDFIAKAQEILGCPVQVISGEEEARLIYQGVAHTTGGADQRLVVDIGGASTELVTGTGAQTTSLFSLSMGCVTWLERYFADRNLGQENFDAAEKAAREVLRPVADELRYHGWKVCVGASGTVQALQEIMMAQGMDERITLEKLQQLKQRAIHCGRLEELEIDGLTLERALVFPSGLAILIAIFTELNIQCMTLAGGALREGLVYGMLHLAVEQDIRSRTLRNIQRRFMIDIDQAQRVAKVAANFFDQVENEWHLEAISRDLLISACQLHEIGLSVDFKQAPQHAAYLVRNLDLPGFTPAQKKLLATLLLNQTNPVDLSSLHQQNAVPPRVAEQLCRLLRLAIIFASRRRDDLVPEMTLQANHELLTLTLPQGWLTQHPLGKEIIAQESQWQSYVHWPLEVH
- total protein half-life in vivo [1]: 4.11 ± 0.81 h
- total protein half-life in vivo [2]: 3.91 ± 0.1 h
- total protein half-life in vivo [3]: 3.77 ± 0.53 h
- total protein half-life in vivo [4]: 3.75 ± 0.87 h
- total protein half-life in vivo [5]: 3.64 ± 0.35 h
- total protein half-life in vivo [6]: 2.92 ± 0.24 h
- total protein half-life in vivo [7]: 5.11 ± 0.2 h
- total protein half-life in vivo [8]: 9.31 ± 0.75 h
- total protein half-life in vivo [9]: 3.94 ± 0.33 h
- total protein half-life in vivo [10]: 5.6 ± 0.23 h
- total protein half-life in vivo [11]: 5.28 ± 1 h
- total protein half-life in vivo [12]: 11.3 ± 0.41 h

Sequence: MGTTKHSKLLILGSGPAGYTAAVYAARANLQPVLITGMEKGGQLTTTTEVENWPGDPNDLTGPLLMERMHEHATKFETEIIFDHINKVDLQNRPFRLNGDNGEYTCDALIIATGASARYLGLPSEEAFKGRGVSACATCDGFFYRNQKVAVIGGGNTAVEEALYLSNIASEVHLIHRRDGFRAEKILIKRLMDKVENGNIILHTNRTLEEVTGDQMGVTGVRLRDTQNSDNIESLDVAGLFVAIGHSPNTAIFEGQLELENGYIKVQSGIHGNATQTSIPGVFAAGDVMDHIYRQAITSAGTGCMAALDAERYLDGLADAK [P0A9P4]
- total protein half-life in vivo [1]: 4.04 ± 0.12 h
- total protein half-life in vivo [2]: 3.95 ± 0.56 h
- total protein half-life in vivo [3]: 3.57 ± 0.13 h
- total protein half-life in vivo [4]: 3.954 ± 0.035 h
- total protein half-life in vivo [5]: 3.71 ± 0.12 h
- total protein half-life in vivo [6]: 3.16 ± 0.09 h
- total protein half-life in vivo [7]: 5.74 ± 0.6 h
- total protein half-life in vivo [8]: 10.2 ± 1.8 h
- total protein half-life in vivo [9]: 3.8 ± 0.19 h
- total protein half-life in vivo [10]: 6.33 ± 0.39 h
- total protein half-life in vivo [11]: 5.05 ± 0.65 h
- total protein half-life in vivo [12]: 10.7 ± 0.32 h

Sequence: MGYLNNVTGYREDLLANRAIVKHGNFALLTPDGLVKNIIPGFENCDATILSTPKLGASFVDYLVTLHQNGGNQQGFGGEGIETFLYVISGNITAKAEGKTFALSEGGYLYCPPGSLMTFVNAQAEDSQIFLYKRRYVPVEGYAPWLVSGNASELERIHYEGMDDVILLDFLPKELGFDMNMHILSFAPGASHGYIETHVQEHGAYILSGQGVYNLDNNWIPVKKGDYIFMGAYSLQAGYGVGRGEAFSYIYSKDCNRDVEI
- total protein half-life in vivo [1]: 4.66 ± 0.65 h
- total protein half-life in vivo [2]: 4.57 ± 0.21 h
- total protein half-life in vivo [3]: 4.56 ± 0.21 h
- total protein half-life in vivo [4]: 4.35 ± 0.076 h
- total protein half-life in vivo [5]: 4.52 ± 0.48 h
- total protein half-life in vivo [7]: 6.13 ± 0.5 h
- total protein half-life in vivo [8]: 10.8 ± 1.2 h
- total protein half-life in vivo [9]: 4.4 ± 0.1 h
- total protein half-life in vivo [10]: 7 ± 0.45 h
- total protein half-life in vivo [11]: 5.21 ± 0.26 h
- total protein half-life in vivo [12]: 11.1 ± 0.86 h

Sequence: MHAYLHCLSHSPLVGYVDPAQEVLDEVNGVIASARERIAAFSPELVVLFAPDHYNGFFYDVMPPFCLGVGATAIGDFGSAAGELPVPVELAEACAHAVMKSGIDLAVSYCMQVDHGFAQPLEFLLGGLDKVPVLPVFINGVATPLPGFQRTRMLGEAIGRFTSTLNKRVLFLGSGGLSHQPPVPELAKADAHMRDRLLGSGKDLPASERELRQQRVISAAEKFVEDQRTLHPLNPIWDNQFMTLLEQGRIQELDAVSNEELSAIAGKSTHEIKTWVAAFAAISAFGNWRSEGRYYRPIPEWIAGFGSLSARTEN [P0ABR9]
- total protein half-life in vivo [1]: 5.32 h

Reference: the supplement of paper PMC11246515
